Data taken from paper PMC8509576, “Loops around the Heme Pocket Have a Critical Role in the Function and Stability of BsDyP from Bacillus subtilis” (International Journal of Molecular Sciences, 2021).

Columns and labels:
[1] = substrate: COc1cccc(OC)c1O; assay: steady-state kinetics, oxidation followed by absorbance; type: biochemical, Bacillus subtilis
Source text: steady-state kinetics, oxidation followed by absorbance on BsDyP

[2] = substrate: CCn1c(=NN=c2sc3cc(S(=O)(=O)O)ccc3n2CC)sc2cc(S(=O)(=O)O)ccc21; assay: steady-state kinetics, ABTS oxidation; type: biochemical, Bacillus subtilis; conditions: one kcat column shared with H2O2
Source text: steady-state kinetics, ABTS oxidation on BsDyP

[3] = 0.2 mM H2O2, sodium phosphate buffer pH 3.8, 25 °C, apparent, rates per holoprotein
[4] = 0.2 mM H2O2, pH 4.2, 25 °C, apparent
[5] = variant 1F9, 0.6 mM H2O2, sodium phosphate buffer pH 3.8, 25 °C
[6] = variant 1F9, 0.6 mM H2O2, pH 4.2, 25 °C
[7] = variant 3G5, 0.6 mM H2O2, sodium phosphate buffer pH 3.8, 25 °C
[8] = variant 3G5, 0.6 mM H2O2, pH 4.2, 25 °C
[9] = variant 54D6, 0.6 mM H2O2, sodium phosphate buffer pH 3.8, 25 °C
[10] = variant 54D6, 0.6 mM H2O2, pH 4.2, 25 °C
[11] = variant 5G5, 0.6 mM H2O2, sodium phosphate buffer pH 3.8, 25 °C
[12] = variant 5G5, 0.6 mM H2O2, pH 4.2, 25 °C

B1: BsDyP (Bacillus subtilis subsp. subtilis str. 168; A45M) (protein)
chain: MKPSKKDEKEEEQIVPFYGKHQAGITTAHQTYVYFAALDVTAKDKSDIITLFRNWTSLTQMLTSGKKMSAEQRNQYLPPQDTGESADLSPSNLTVTFGFGPGFFEKDGKDRFGLKSKKPKHLAALPAMPNDNLDEKQGGGDICIQVCADDEQVAFHALRNLLNQAVGTCEVRFVNKGFLSGGKNGETPRNLFGFKDGTGNQSTKDDTLMNSIVWIQSGEPDWMTGGTYMAFRKIKMFLEVWDRSSLKDQEDTFGRRKSSGAPFGQKKETDPVKLNQIPSNSHVSLAKSTGKQILRRAFSYTEGLDPKTGYMDAGLLFISFQKNPDNQFIPMLKALSAKDALNEYTQTIGSALYACPGGCKKGEYIAQRLLES
notes: Tat signal peptide (residues 1-45) deleted, A45M new start codon, plasmid pVB4 (pET-21a), no tag told; expressed in E. coli Tuner(DE3); called wild-type BsDyP; precursor 416 residues
Work on B1 yielded a Km [1, 3] of 60 ± 10 µM, a kcat [1, 3] of 0.42 ± 0.03 s⁻¹ and a kcat/Km [1, 3] of 7000 ± 1000 M⁻¹ s⁻¹. The Km [2, 4] was 420 ± 30 µM, the kcat [2, 4] was 14.2 ± 1.0 s⁻¹ and the kcat/Km [2, 4] was 36000 ± 3000 M⁻¹ s⁻¹.

B2: BsDyP (Bacillus subtilis subsp. subtilis str. 168; A45M/S325P) (protein)
chain: MKPSKKDEKEEEQIVPFYGKHQAGITTAHQTYVYFAALDVTAKDKSDIITLFRNWTSLTQMLTSGKKMSAEQRNQYLPPQDTGESADLSPSNLTVTFGFGPGFFEKDGKDRFGLKSKKPKHLAALPAMPNDNLDEKQGGGDICIQVCADDEQVAFHALRNLLNQAVGTCEVRFVNKGFLSGGKNGETPRNLFGFKDGTGNQSTKDDTLMNSIVWIQSGEPDWMTGGTYMAFRKIKMFLEVWDRSSLKDQEDTFGRRKSSGAPFGQKKETDPVKLNQIPSNPHVSLAKSTGKQILRRAFSYTEGLDPKTGYMDAGLLFISFQKNPDNQFIPMLKALSAKDALNEYTQTIGSALYACPGGCKKGEYIAQRLLES
notes: as for B1
With B2 the Km [1, 5] was 150 ± 10 µM, the kcat [1, 5] was 0.83 ± 0.04 s⁻¹ and the kcat/Km [1, 5] was 5500 ± 400 M⁻¹ s⁻¹. For the same protein, the Km [2, 6] was 890 ± 100 µM, the kcat [2, 6] was 50.4 ± 1.4 s⁻¹ and the kcat/Km [2, 6] was 58000 ± 7000 M⁻¹ s⁻¹.

B3: BsDyP (Bacillus subtilis subsp. subtilis str. 168; A330V/A45M/L166Q/T296S/V284A) (protein)
chain: MKPSKKDEKEEEQIVPFYGKHQAGITTAHQTYVYFAALDVTAKDKSDIITLFRNWTSLTQMLTSGKKMSAEQRNQYLPPQDTGESADLSPSNLTVTFGFGPGFFEKDGKDRFGLKSKKPKHQAALPAMPNDNLDEKQGGGDICIQVCADDEQVAFHALRNLLNQAVGTCEVRFVNKGFLSGGKNGETPRNLFGFKDGTGNQSTKDDTLMNSIVWIQSGEPDWMTGGTYMAFRKIKMFLEAWDRSSLKDQEDSFGRRKSSGAPFGQKKETDPVKLNQIPSNSHVSLVKSTGKQILRRAFSYTEGLDPKTGYMDAGLLFISFQKNPDNQFIPMLKALSAKDALNEYTQTIGSALYACPGGCKKGEYIAQRLLES
notes: as for B1
B3 showed a Km [1, 7] of 90 ± 10 µM, a kcat [1, 7] of 0.8 ± 0.1 s⁻¹ and a kcat/Km [1, 7] of 9000 ± 1000 M⁻¹ s⁻¹. For the same protein, the Km [2, 8] was 1370 ± 250 µM, the kcat [2, 8] was 28.1 ± 2.1 s⁻¹ and the kcat/Km [2, 8] was 25000 ± 5000 M⁻¹ s⁻¹.

B4: BsDyP (Bacillus subtilis subsp. subtilis str. 168; A45M/K317E/S325P) (protein)
chain: MKPSKKDEKEEEQIVPFYGKHQAGITTAHQTYVYFAALDVTAKDKSDIITLFRNWTSLTQMLTSGKKMSAEQRNQYLPPQDTGESADLSPSNLTVTFGFGPGFFEKDGKDRFGLKSKKPKHLAALPAMPNDNLDEKQGGGDICIQVCADDEQVAFHALRNLLNQAVGTCEVRFVNKGFLSGGKNGETPRNLFGFKDGTGNQSTKDDTLMNSIVWIQSGEPDWMTGGTYMAFRKIKMFLEVWDRSSLKDQEDTFGRRKSSGAPFGQKKETDPVELNQIPSNPHVSLAKSTGKQILRRAFSYTEGLDPKTGYMDAGLLFISFQKNPDNQFIPMLKALSAKDALNEYTQTIGSALYACPGGCKKGEYIAQRLLES
notes: as for B1
B4 gave a Km [1, 9] of 600 ± 10 µM, a kcat [1, 9] of 1 ± 0.1 s⁻¹ and a kcat/Km [1, 9] of 1600 ± 500 M⁻¹ s⁻¹. It also gave a Km [2, 10] of 800 ± 140 µM, a kcat [2, 10] of 47.7 ± 2.9 s⁻¹ and a kcat/Km [2, 10] of 60000 ± 11000 M⁻¹ s⁻¹.

B5: BsDyP (Bacillus subtilis subsp. subtilis str. 168; A330V/A45M/K317E/S325P) (protein)
chain: MKPSKKDEKEEEQIVPFYGKHQAGITTAHQTYVYFAALDVTAKDKSDIITLFRNWTSLTQMLTSGKKMSAEQRNQYLPPQDTGESADLSPSNLTVTFGFGPGFFEKDGKDRFGLKSKKPKHLAALPAMPNDNLDEKQGGGDICIQVCADDEQVAFHALRNLLNQAVGTCEVRFVNKGFLSGGKNGETPRNLFGFKDGTGNQSTKDDTLMNSIVWIQSGEPDWMTGGTYMAFRKIKMFLEVWDRSSLKDQEDTFGRRKSSGAPFGQKKETDPVELNQIPSNPHVSLVKSTGKQILRRAFSYTEGLDPKTGYMDAGLLFISFQKNPDNQFIPMLKALSAKDALNEYTQTIGSALYACPGGCKKGEYIAQRLLES
notes: as for B1
For B5, the Km [1, 11] was 700 ± 100 µM, the kcat [1, 11] was 2.8 ± 0.1 s⁻¹ and the kcat/Km [1, 11] was 3800 ± 200 M⁻¹ s⁻¹. For the same protein, the Km [2, 12] was 1290 ± 190 µM, the kcat [2, 12] was 56.1 ± 1.9 s⁻¹ and the kcat/Km [2, 12] was 42000 ± 6000 M⁻¹ s⁻¹.
